Consider 125 sequences from the supplement of paper PMC9112550, “Optimization of the antimicrobial peptide Bac7 by deep mutational scanning” (BMC Biology, 2022).
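Further: peptides expressed intracellularly from a pBAD plasmid library in pooled LB shake-flask culture, induced with 0.3% L-arabinose, DNA abundance read by NGS, three biological replicates, DESeq2 with apeglm shrinkage.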

The test system of the data set is Escherichia coli TOP10. In words: shrunken log2 fold change of peptide-encoding DNA abundance (4.5 h post-induction vs induction); higher = less antimicrobial activity (less host growth inhibition). The note with it: time post-induction: 4.5 h; library: site-saturation at positions 5, 18, 19, 20.
Regarding RRIRIRPPRLPRPRPRPKDRPRP, the “shrunken log2 fold change” value was -0.409.

RRIRPRPPRLPRPRPRPSSMPRP: the “shrunken log2 fold change” value is -0.29.

For RRIRERPPRLPRPRPRPGHQPRP, the “shrunken log2 fold change” value is -0.236.

Regarding RRIRGRPPRLPRPRPRPDNFPRP, the “shrunken log2 fold change” value turned out to be 0.169.

Regarding RRIRERPPRLPRPRPRPAIVPRP, the “shrunken log2 fold change” value is 0.00833.

Consider RRIRERPPRLPRPRPRPFSHPRP, for which the “shrunken log2 fold change” value was -0.153.

As for RRIRSRPPRLPRPRPRPGYPPRP, the “shrunken log2 fold change” value was -0.209.

With RRIRMRPPRLPRPRPRPFGMPRP, the “shrunken log2 fold change” value was -0.0241.

For the sequence RRIRNRPPRLPRPRPRPFTHPRP, the “shrunken log2 fold change” value is -0.374.

On to RRIRARPPRLPRPRPRPTEQPRP, for which the “shrunken log2 fold change” value came to 0.184.

Take RRIRRRPPRLPRPRPRPQLYPRP: the “shrunken log2 fold change” value was found to be 0.101.

In the case of RRIRMRPPRLPRPRPRPLLAPRP, the “shrunken log2 fold change” value was 2.1.

As for RRIRIRPPRLPRPRPRPAPHPRP, the “shrunken log2 fold change” value was -0.0179.

In the case of RRIRLRPPRLPRPRPRPATWPRP, the “shrunken log2 fold change” value is -0.125.

As for RRIRTRPPRLPRPRPRPGRAPRP, the “shrunken log2 fold change” value was determined as 0.446.

Turning to RRIRYRPPRLPRPRPRPMGIPRP, the “shrunken log2 fold change” value came to 0.00902.

For the sequence RRIRLRPPRLPRPRPRPFRKPRP, the “shrunken log2 fold change” value came out at 0.0823.

As to RRIRLRPPRLPRPRPRPTLYPRP, the “shrunken log2 fold change” value worked out at 2.28.

RRIRKRPPRLPRPRPRPPPCPRP: the “shrunken log2 fold change” value worked out at 0.585.

Regarding RRIRNRPPRLPRPRPRPQERPRP, the “shrunken log2 fold change” value was determined as 0.0235.

As to RRIRIRPPRLPRPRPRPSCPPRP, the “shrunken log2 fold change” value is -0.776.

On to RRIRVRPPRLPRPRPRPVGRPRP, for which the “shrunken log2 fold change” value was 0.542.

For the sequence RRIRCRPPRLPRPRPRPENCPRP, the “shrunken log2 fold change” value was 0.0153.

As to RRIRMRPPRLPRPRPRPTRPPRP, the “shrunken log2 fold change” value is 1.32.

Regarding RRIRQRPPRLPRPRPRPMMNPRP, the “shrunken log2 fold change” value is -0.127.

For the sequence RRIRCRPPRLPRPRPRPHKCPRP, the “shrunken log2 fold change” value is -0.721.

Turning to RRIRQRPPRLPRPRPRPSWYPRP, the “shrunken log2 fold change” value is -0.0733.

Turning to RRIRWRPPRLPRPRPRPFYLPRP, the “shrunken log2 fold change” value is -0.336.

RRIRVRPPRLPRPRPRPAMRPRP: the “shrunken log2 fold change” value was determined as 0.6.

Take RRIRDRPPRLPRPRPRPRRCPRP: the “shrunken log2 fold change” value amounted to 0.142.

On to RRIRTRPPRLPRPRPRPEFRPRP, for which the “shrunken log2 fold change” value was -0.0543.

RRIRRRPPRLPRPRPRPPTEPRP: the “shrunken log2 fold change” value worked out at 0.315.

For RRIRYRPPRLPRPRPRPSNNPRP, the “shrunken log2 fold change” value is -1.42.

Consider RRIRQRPPRLPRPRPRPCVDPRP, for which the “shrunken log2 fold change” value came to 0.148.

For the sequence RRIRQRPPRLPRPRPRPRCTPRP, the “shrunken log2 fold change” value is -0.172.

As for RRIRERPPRLPRPRPRPIKAPRP, the “shrunken log2 fold change” value is -0.00435.

With RRIRHRPPRLPRPRPRPKSTPRP, the “shrunken log2 fold change” value is -0.0868.

Turning to RRIRNRPPRLPRPRPRPYYGPRP, the “shrunken log2 fold change” value was -0.105.

RRIRSRPPRLPRPRPRPYCRPRP: the “shrunken log2 fold change” value is -0.512.

Turning to RRIRGRPPRLPRPRPRPPCEPRP, the “shrunken log2 fold change” value was 0.433.

Regarding RRIRTRPPRLPRPRPRPCILPRP, the “shrunken log2 fold change” value was -0.831.

As to RRIRLRPPRLPRPRPRPHRCPRP, the “shrunken log2 fold change” value is -0.0644.

As to RRIRLRPPRLPRPRPRPEMKPRP, the “shrunken log2 fold change” value is -0.169.

With RRIRKRPPRLPRPRPRPGTNPRP, the “shrunken log2 fold change” value came to 0.124.

In the case of RRIRYRPPRLPRPRPRPQGTPRP, the “shrunken log2 fold change” value was found to be 0.034.

With RRIRLRPPRLPRPRPRPLMIPRP, the “shrunken log2 fold change” value is -0.288.

For the sequence RRIRQRPPRLPRPRPRPTHPPRP, the “shrunken log2 fold change” value was found to be 0.374.

As to RRIRLRPPRLPRPRPRPWTVPRP, the “shrunken log2 fold change” value is -0.176.

For the sequence RRIRARPPRLPRPRPRPRDGPRP, the “shrunken log2 fold change” value came to 1.3.

Consider RRIRTRPPRLPRPRPRPMGHPRP, for which the “shrunken log2 fold change” value is -0.118.

Consider RRIRPRPPRLPRPRPRPAPIPRP, for which the “shrunken log2 fold change” value is 0.0955.

Consider RRIRYRPPRLPRPRPRPPKMPRP, for which the “shrunken log2 fold change” value turned out to be 0.28.

For the sequence RRIRTRPPRLPRPRPRPMEFPRP, the “shrunken log2 fold change” value is -0.0956.

Regarding RRIRHRPPRLPRPRPRPNNFPRP, the “shrunken log2 fold change” value was -0.0738.

Take RRIRPRPPRLPRPRPRPAEIPRP: the “shrunken log2 fold change” value was 0.0712.

Regarding RRIRYRPPRLPRPRPRPKNSPRP, the “shrunken log2 fold change” value is -1.22.

Turning to RRIRDRPPRLPRPRPRPSNFPRP, the “shrunken log2 fold change” value is -0.0206.

As to RRIRLRPPRLPRPRPRPFPMPRP, the “shrunken log2 fold change” value was -0.312.

With RRIRFRPPRLPRPRPRPLMHPRP, the “shrunken log2 fold change” value is -0.246.

As to RRIRYRPPRLPRPRPRPMKYPRP, the “shrunken log2 fold change” value is -0.00968.

As for RRIRTRPPRLPRPRPRPNAKPRP, the “shrunken log2 fold change” value is -0.0531.

As to RRIRTRPPRLPRPRPRPWCRPRP, the “shrunken log2 fold change” value is -0.263.

Turning to RRIRWRPPRLPRPRPRPPKYPRP, the “shrunken log2 fold change” value was -0.163.

As for RRIRERPPRLPRPRPRPWYAPRP, the “shrunken log2 fold change” value is -0.137.

Regarding RRIRARPPRLPRPRPRPHTQPRP, the “shrunken log2 fold change” value was -0.0761.

RRIRCRPPRLPRPRPRPFNNPRP: the “shrunken log2 fold change” value is -0.701.

With RRIRNRPPRLPRPRPRPSSEPRP, the “shrunken log2 fold change” value is -0.214.

Consider RRIRRRPPRLPRPRPRPIIMPRP, for which the “shrunken log2 fold change” value was -0.444.

RRIRWRPPRLPRPRPRPHKFPRP: the “shrunken log2 fold change” value is -0.307.

Turning to RRIRMRPPRLPRPRPRPNCYPRP, the “shrunken log2 fold change” value is -0.26.

As to RRIRCRPPRLPRPRPRPYRKPRP, the “shrunken log2 fold change” value is -0.49.

Take RRIRYRPPRLPRPRPRPNFEPRP: the “shrunken log2 fold change” value is -0.242.

RRIRIRPPRLPRPRPRPFMDPRP: the “shrunken log2 fold change” value is -1.07.

Consider RRIRNRPPRLPRPRPRPFDSPRP, for which the “shrunken log2 fold change” value was -0.303.

In the case of RRIRCRPPRLPRPRPRPWRDPRP, the “shrunken log2 fold change” value was -0.0798.

Turning to RRIRWRPPRLPRPRPRPMWCPRP, the “shrunken log2 fold change” value was -0.166.

With RRIRHRPPRLPRPRPRPWQTPRP, the “shrunken log2 fold change” value came to 0.266.

RRIRKRPPRLPRPRPRPQLNPRP: the “shrunken log2 fold change” value was 0.0489.

RRIRSRPPRLPRPRPRPSSKPRP: the “shrunken log2 fold change” value was -0.219.

With RRIRFRPPRLPRPRPRPKPSPRP, the “shrunken log2 fold change” value is 0.462.

For the sequence RRIRNRPPRLPRPRPRPQNCPRP, the “shrunken log2 fold change” value turned out to be 0.0292.

As for RRIRCRPPRLPRPRPRPCKGPRP, the “shrunken log2 fold change” value is 0.035.

On to RRIRMRPPRLPRPRPRPSCDPRP, for which the “shrunken log2 fold change” value stood at 0.444.

For RRIRYRPPRLPRPRPRPMMFPRP, the “shrunken log2 fold change” value is -0.091.

Regarding RRIRMRPPRLPRPRPRPPVNPRP, the “shrunken log2 fold change” value turned out to be 0.648.

Regarding RRIRKRPPRLPRPRPRPNWHPRP, the “shrunken log2 fold change” value was -0.0566.

Consider RRIRNRPPRLPRPRPRPRPPPRP, for which the “shrunken log2 fold change” value was determined as 1.26.

For RRIRCRPPRLPRPRPRPDGGPRP, the “shrunken log2 fold change” value stood at 0.196.

For the sequence RRIRRRPPRLPRPRPRPMAYPRP, the “shrunken log2 fold change” value is -0.193.

For RRIRERPPRLPRPRPRPWVVPRP, the “shrunken log2 fold change” value was -0.151.

For the sequence RRIRQRPPRLPRPRPRPCFWPRP, the “shrunken log2 fold change” value was 0.14.

RRIRNRPPRLPRPRPRPPKPPRP: the “shrunken log2 fold change” value stood at 0.145.

Turning to RRIRFRPPRLPRPRPRPEPEPRP, the “shrunken log2 fold change” value was found to be 0.864.

As for RRIRLRPPRLPRPRPRPEWAPRP, the “shrunken log2 fold change” value was -0.0233.

RRIRMRPPRLPRPRPRPGITPRP: the “shrunken log2 fold change” value turned out to be 0.133.

Take RRIRGRPPRLPRPRPRPEFYPRP: the “shrunken log2 fold change” value is 0.0687.

As to RRIRNRPPRLPRPRPRPSFQPRP, the “shrunken log2 fold change” value is -0.274.

For RRIRVRPPRLPRPRPRPTQTPRP, the “shrunken log2 fold change” value was determined as 0.0438.

With RRIRQRPPRLPRPRPRPSIYPRP, the “shrunken log2 fold change” value is -0.988.

Regarding RRIRYRPPRLPRPRPRPIDAPRP, the “shrunken log2 fold change” value was -0.284.

In the case of RRIRHRPPRLPRPRPRPGLQPRP, the “shrunken log2 fold change” value stood at 0.157.

Take RRIRTRPPRLPRPRPRPEPMPRP: the “shrunken log2 fold change” value came to 0.00621.

With RRIRYRPPRLPRPRPRPQCTPRP, the “shrunken log2 fold change” value was -0.292.

For RRIRARPPRLPRPRPRPIPNPRP, the “shrunken log2 fold change” value was -0.069.

Take RRIRVRPPRLPRPRPRPSVRPRP: the “shrunken log2 fold change” value was -0.297.

In the case of RRIRWRPPRLPRPRPRPFVRPRP, the “shrunken log2 fold change” value is -0.127.

With RRIRRRPPRLPRPRPRPHYKPRP, the “shrunken log2 fold change” value was -0.487.

Turning to RRIRMRPPRLPRPRPRPCMPPRP, the “shrunken log2 fold change” value is -0.106.

On to RRIRERPPRLPRPRPRPFHWPRP, for which the “shrunken log2 fold change” value was -0.0575.

RRIRRRPPRLPRPRPRPMHQPRP: the “shrunken log2 fold change” value is -0.105.

For the sequence RRIRYRPPRLPRPRPRPGIYPRP, the “shrunken log2 fold change” value is -0.288.

With RRIRWRPPRLPRPRPRPLCYPRP, the “shrunken log2 fold change” value stood at 0.0105.

As for RRIRWRPPRLPRPRPRPFNQPRP, the “shrunken log2 fold change” value is -0.494.

For RRIRGRPPRLPRPRPRPPMHPRP, the “shrunken log2 fold change” value was determined as 0.95.

As for RRIRERPPRLPRPRPRPAKKPRP, the “shrunken log2 fold change” value was determined as 0.00764.

In the case of RRIRERPPRLPRPRPRPFLSPRP, the “shrunken log2 fold change” value was -0.11.

With RRIRTRPPRLPRPRPRPTCEPRP, the “shrunken log2 fold change” value came to 0.125.

Turning to RRIRERPPRLPRPRPRPYDPPRP, the “shrunken log2 fold change” value is -0.0709.

As to RRIRDRPPRLPRPRPRPVWDPRP, the “shrunken log2 fold change” value was determined as 0.107.

Regarding RRIRCRPPRLPRPRPRPEMKPRP, the “shrunken log2 fold change” value is 0.0473.

Regarding RRIRIRPPRLPRPRPRPRFQPRP, the “shrunken log2 fold change” value was -0.0961.

RRIRDRPPRLPRPRPRPQMYPRP: the “shrunken log2 fold change” value is -0.127.

With RRIRYRPPRLPRPRPRPAFGPRP, the “shrunken log2 fold change” value is -0.21.

Regarding RRIRPRPPRLPRPRPRPDNRPRP, the “shrunken log2 fold change” value was 0.0191.

Consider RRIRPRPPRLPRPRPRPNLLPRP, for which the “shrunken log2 fold change” value was determined as 0.0634.
